Assay results from patent US20230079757A1, “METHODS AND MATERIALS FOR TREATING CANCER” (Mayo Foundation for Medical Education and Research, priority 2020, published 2023).

T1: STAT1 homodimer (human, UniProt P42224 2-750)
T1 construct: It was inferred from co-IP after IFNγ treatment and was not purified; also called STAT1/STAT1 homodimer; STAT1-STAT1 complex
T1 sequence (looked up): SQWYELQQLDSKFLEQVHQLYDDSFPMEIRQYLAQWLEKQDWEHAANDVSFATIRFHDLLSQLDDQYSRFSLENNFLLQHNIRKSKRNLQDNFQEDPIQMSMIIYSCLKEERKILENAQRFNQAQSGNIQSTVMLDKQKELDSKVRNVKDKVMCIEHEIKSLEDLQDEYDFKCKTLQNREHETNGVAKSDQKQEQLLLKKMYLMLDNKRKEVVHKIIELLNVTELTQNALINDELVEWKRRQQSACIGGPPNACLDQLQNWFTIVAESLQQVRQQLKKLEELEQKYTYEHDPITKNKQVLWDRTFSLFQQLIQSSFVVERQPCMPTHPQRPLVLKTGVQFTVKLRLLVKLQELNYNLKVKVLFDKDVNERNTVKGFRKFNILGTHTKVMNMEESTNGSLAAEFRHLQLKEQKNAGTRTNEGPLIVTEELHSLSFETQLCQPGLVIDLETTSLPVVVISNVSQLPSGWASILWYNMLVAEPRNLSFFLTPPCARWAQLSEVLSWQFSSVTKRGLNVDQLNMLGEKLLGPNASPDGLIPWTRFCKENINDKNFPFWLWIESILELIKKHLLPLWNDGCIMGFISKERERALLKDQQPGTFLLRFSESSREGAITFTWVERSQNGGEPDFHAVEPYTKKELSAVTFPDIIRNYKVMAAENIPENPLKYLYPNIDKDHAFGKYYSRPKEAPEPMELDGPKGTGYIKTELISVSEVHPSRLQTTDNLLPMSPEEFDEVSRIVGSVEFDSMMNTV

B1: FOXA1 (Forkhead box protein A1), wild type (other, human, UniProt P55317 1-472, looked up)
chain: MLGTVKMEGHETSDWNSYYADTQEAYSSVPVSNMNSGLGSMNSMNTYMTMNTMTTSGNMTPASFNMSYANPGLGAGLSPGAVAGMPGGSAGAMNSMTAAGVTAMGTALSPSGMGAMGAQQAASMNGLGPYAAAMNPCMSPMAYAPSNLGRSRAGGGGDAKTFKRSYPHAKPPYSYISLITMAIQQAPSKMLTLSEIYQWIMDLFPYYRQNQQRWQNSIRHSLSFNDCFVKVARSPDKPGKGSYWTLHPDSGNMFENGCYLRRQKRFKCEKQPGAGGGGGSGSGGSGAKGGPESRKDPSGASNPSADSPLHRGVHGKTGQLEGAPAPGPAASPQTLDHSGATATGGASELKTPASSTAPPISSGPGALASVPASHPAHGLAPHESQLHLKGDPHYSFNHPFSINNLMSSSEQQHKLDFKAYEQALQYSPYGSTLPASLPLGSASVTTRSPIEPSALEPAYYQGVYSRPVLNTS
notes: also called FOXA1-WT; WT FOXA1
B2: IRF9 (other, UniProt Q00978 1-393, looked up)
chain: MASGRARCTRKLRNWVVEQVESGQFPGVCWDDTAKTMFRIPWKHAGKQDFREDQDAAFFKAWAIFKGKYKEGDTGGPAVWKTRLRCALNKSSEFKEVPERGRMDVAEPYKVYQLLPPGIVSGQPGTQKVPSKRQHSSVSSERKEEEDAMQNCTLSPSVLQDSLNNEEEGASGGAVHSDIGSSSSSSSPEPQEVTDTTEAPFQGDQRSLEFLLPPEPDYSLLLTFIYNGRVVGEAQVQSLDCRLVAEPSGSESSMEQVLFPKPGPLEPTQRLLSQLERGILVASNPRGLFVQRLCPIPISWNAPQAPPGPGPHLLPSNECVELFRTAYFCRDLVRYFQGLGPPPKFQVTLNFWEESHGSSHTPQNLITVKMEQAFARYLLEQTPEQQAAILSLV
B3: STAT1 (other, human, UniProt P42224 2-750, looked up)
chain: T1 sequence (looked up)
notes: Cells were stimulated with IFN; also called endogenous STAT1

Columns and labels:
STAT2 [1] = biological target: T2, STAT2 (human, UniProt P52630 1-851); assay: co-IP of endogenous proteins in LNCaP cells (FIG. 8A)
T2 construct: also called endogenous STAT2
T2 sequence (P52630 whole entry): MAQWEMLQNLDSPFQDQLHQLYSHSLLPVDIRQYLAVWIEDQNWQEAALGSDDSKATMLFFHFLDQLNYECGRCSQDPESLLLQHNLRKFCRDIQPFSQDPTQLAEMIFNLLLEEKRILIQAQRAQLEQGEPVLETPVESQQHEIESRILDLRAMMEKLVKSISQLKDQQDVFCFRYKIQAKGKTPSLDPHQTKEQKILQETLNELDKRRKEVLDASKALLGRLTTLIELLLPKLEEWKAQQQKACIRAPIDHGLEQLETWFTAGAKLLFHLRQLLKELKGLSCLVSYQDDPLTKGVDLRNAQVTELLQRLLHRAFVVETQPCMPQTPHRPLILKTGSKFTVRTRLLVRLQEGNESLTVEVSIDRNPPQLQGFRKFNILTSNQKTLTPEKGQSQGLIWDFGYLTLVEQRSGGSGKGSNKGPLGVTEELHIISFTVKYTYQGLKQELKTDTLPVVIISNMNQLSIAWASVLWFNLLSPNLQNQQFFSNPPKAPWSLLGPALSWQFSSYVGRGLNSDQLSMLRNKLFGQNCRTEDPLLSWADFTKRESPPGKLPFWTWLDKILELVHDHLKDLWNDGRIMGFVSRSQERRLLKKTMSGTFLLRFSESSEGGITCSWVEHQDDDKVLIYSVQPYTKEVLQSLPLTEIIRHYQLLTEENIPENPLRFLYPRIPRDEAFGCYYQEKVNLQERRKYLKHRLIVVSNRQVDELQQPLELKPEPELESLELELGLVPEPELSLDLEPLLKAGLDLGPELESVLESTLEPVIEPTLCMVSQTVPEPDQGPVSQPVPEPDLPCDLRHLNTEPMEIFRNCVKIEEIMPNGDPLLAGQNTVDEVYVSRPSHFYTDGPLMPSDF
Experimental: (§1) For extraction of nuclear and cytoplasmic proteins from cells, NE-PER Nuclear and Cytoplasmic Extraction Kit (# 78835, Thermo Fisher Scientific) was used according to the manufacturer's instructions. IP buffer (50 mM Tris-HCl pH7.5, 150 mM NaCl, 1% NP40, 0.5% Sodium Deoxycholate) was used to extract whole cell lysate. P rotein A/G agarose (# 20421, Thermo Fisher Scientific) was used for immunoprecipitation of FOXA1 (# ab23738, Abcam) and Flag-tag (dilution 1:1000; # F1804, Sigma-Aldrich). Monoclonal anti-HA agarose (# A2095, Sigma-Aldrich) was used for HA-tag Co-IP. For glutathione-S-transferase (GST) pulldown assay, GST-tagged STAT2 fragment expressed at E. coli was purified by Glutathione Sepharose 4B beads (# 84-239, Genesee Scientific) and incubated with lysate from 293T cells expressing interested proteins, and GST pulldown assays were performed. For protein co-IP, samples eluted in IP butter were incubated with agarose beads and antibodies overnight at 4° C. and washed with 6 times with IP buffer in the following day. Samples were boiled for 10 minutes in 50 μl sample buffer (2% SDS, 10% glycerol, 10% β-mercaptoethanol, bromophenol blue and Tris-HCl, pH 6.8) and subjected to Western blotting.

STAT1 = biological target: B3; assay: co-IP of endogenous proteins, nuclear fraction (FIG. 8A, 9A, 9B)
Experimental: as §1

STAT1/STAT2 heterodimer [2] = biological target: T3, STAT1/STAT2 heterodimer (human, UniProt P42224 2-750; P52630 1-851); assay: co-IP of endogenous proteins after IFNα treatment (FIG. 8A, 9A, 9B)
T3 construct: It was inferred from co-IP after IFNα treatment and was not purified; also called STAT2/STAT1 heterodimer
T3 sequence (P52630 whole entry, one chain of several): as the sequence (P52630 whole entry) above
Experimental: as §1

STAT1 homodimer = biological target: T1, STAT1 homodimer; assay: co-IP of endogenous proteins after IFNγ treatment (FIG. 8A, 9A, 9B)
Experimental: as §1

STAT1/STAT2 heterodimer [3] = biological target: T3, STAT1/STAT2 heterodimer; assay: co-IP in 293T cells treated with IFNα (FIG. 9D)
Experimental: as §1

STAT2 [4] = biological target: T2, STAT2; assay: co-IP in 293T cells treated with IFNα (FIG. 9D)
Experimental: as §1

[5] = biological target: the molecule itself; assay: co-IP in 293T cells treated with IFNγ (FIG. 9D)
Experimental: as §1

Binder: B1
binding result (STAT2 [1]): binds
binding result (STAT1): binds
binding result (STAT1/STAT2 heterodimer [2]): binds
binding result (STAT1 homodimer): binds

Binder: B2
binding result (STAT1/STAT2 heterodimer [3]): binds

Binder: B3
binding result (STAT2 [4]): binds
binding result [5]: binds
